Data taken from US7304127.
Values joined by “and” are separate entries in the source; they are usually repeats but may differ in a detail not shown here. Identical values can stand only once.

B1: STRL33 237-254 (peptide)
peptide: MAVFLLTQMPFNLMKFIR
modifications: not checked
B2: STRL33 261-278 (peptide)
peptide: YAMTSFHYTIMVTEAIAY
modifications: not checked
B3: STRL33 181-198 (peptide)
peptide: GYHDEAISTVVLATQMTL
modifications: not checked
B4: STRL33 101-118 (peptide)
peptide: MCKSLLGIYTINFYTSML
modifications: not checked
B5: STRL33 185-202 (peptide)
peptide: EAISTVVLATQMTLGFFL
modifications: not checked
B6: STRL33 93-110 (peptide)
peptide: HEWVFGQVMCKSLLGIYT
modifications: not checked
B7: CCR5 81-98 (peptide)
peptide: LTVPFWAHYAAAQWDFGN
modifications: not checked
B8: CCR5 93-110 (peptide)
peptide: QWDFGNTMCQLLTGLYFI
modifications: not checked
B9: STRL33 189-206 (peptide)
peptide: TVVLATQMTLGFFLPLLT
modifications: not checked
B10: STRL33 217-234 (peptide)
peptide: TLLHAGGFQKHRSLKIIF
modifications: not checked
B11: STRL33 257-274 (peptide)
peptide: HWEYYAMTSFHYTIMVTE
modifications: not checked
B12: CCR5 117-134 (peptide)
peptide: FFIILLTIDRYLAVVHAV
modifications: not checked
B13: STRL33 281-298 (peptide)
peptide: ACLNPVLYAFVSLKFRKN
modifications: not checked
B14: STRL33 233-250 (peptide)
peptide: IFLVMAVFLLTQMPFNLM
modifications: not checked
B15: STRL33 253-270 (peptide)
peptide: IRSTHWEYYAMTSFHYTI
modifications: not checked
B16: CCR5 125-142 (peptide)
peptide: DRYLAVVHAVFALKARTV
modifications: not checked
B17: STRL33 89-106 (peptide)
peptide: YAGIHEWVFGQVMCKSLL
modifications: not checked
B18: STRL33 201-218 (peptide)
peptide: FLPLLTMIVCYSVIIKTL
modifications: not checked
B19: STRL33 157-174 (peptide)
peptide: VISLLVSLPQIIYGNVFN
modifications: not checked
B20: STRL33 225-242 (peptide)
peptide: QKHRSLKIIFLVMAVFLL
modifications: not checked
B21: CCR5 113-130 (peptide)
peptide: FSGIFFIILLTIDRYLAV
modifications: not checked
B22: STRL33 293-310 (peptide)
peptide: LKFRKNFWKLVKDIGCLP
modifications: not checked
B23: CCR5 9-26 (peptide)
peptide: IYDINYYTSEPCQKINVK
modifications: not checked
B24: CCR5 97-114 (peptide)
peptide: GNTMCQLLTGLYFIGFFS
modifications: not checked
B25: STRL33 241-258 (peptide)
peptide: LLTQMPFNLMKFIRSTHW
modifications: not checked
B26: STRL33 177-194 (peptide)
peptide: KLICGYHDEAISTVVLAT
modifications: not checked
B27: STRL33 141-158 (peptide)
peptide: QAKRMTWGKVTSLLIWVI
modifications: not checked
B28: STRL33 153-170 (peptide)
peptide: LLIWVISLLVSLPQIIYG
modifications: not checked
B29: STRL33 229-246 (peptide)
peptide: SLKIIFLVMAVFLLTQMP
modifications: not checked
B30: STRL33 77-94 (peptide)
peptide: DLVFVCTLPFWAYAGIHE
modifications: not checked
B31: STRL33 169-186 (peptide)
peptide: YGNVFNLDKLICGYHDEA
modifications: not checked
B32: CCR5 85-102 (peptide)
peptide: FWAHYAAAQWDFGNTMCQ
modifications: not checked
B33: STRL33 209-226 (peptide)
peptide: VCYSVIIKTLLHAGGFQK
modifications: not checked
B34: STRL33 245-262 (peptide)
peptide: MPFNLMKFIRSTHWEYYA
modifications: not checked
B35: STRL33 317-334 (peptide)
peptide: QWKSSEDNSKTFSASHNV
modifications: not checked
B36: STRL33 193-210 (peptide)
peptide: ATQMTLGFFLPLLTMIVC
modifications: not checked
B37: STRL33 313-330 (peptide)
peptide: GVSHQWKSSEDNSKTFSA
modifications: not checked
B38: CCR5 129-146 (peptide)
peptide: AVVHAVFALKARTVTFGV
modifications: not checked
B39: CCR5 101-118 (peptide)
peptide: CQLLTGLYFIGFFSGIFF
modifications: not checked
B40: CCR5 77-94 (peptide)
peptide: LFFLLTVPFWAHYAAAQW
modifications: not checked
B41: STRL33 173-190 (peptide)
peptide: FNLDKLICGYHDEAISTV
modifications: not checked
B42: STRL33 85-102 (peptide)
peptide: PFWAYAGIHEWVFGQVMC
modifications: not checked
B43: STRL33 81-98 (peptide)
peptide: VCTLPFWAYAGIHEWVFG
modifications: not checked
B44: STRL33 69-86 (peptide)
peptide: FLVNLPLADLVFVCTLPF
modifications: not checked
B45: STRL33 205-222 (peptide)
peptide: LTMIVCYSVIIKTLLHAG
modifications: not checked
B46: STRL33 285-302 (peptide)
peptide: PVLYAFVSLKFRKNFWKL
modifications: not checked
B47: STRL33 289-306 (peptide)
peptide: AFVSLKFRKNFWKLVKDI
modifications: not checked
B48: STRL33 165-182 (peptide)
peptide: PQIIYGNVFNLDKLICGY
modifications: not checked
B49: STRL33 213-230 (peptide)
peptide: VIIKTLLHAGGFQKHRSL
modifications: not checked
B50: STRL33 65-82 (peptide)
peptide: LTDVFLVNLPLADLVFVC
modifications: not checked
B51: CCR5 89-106 (peptide)
peptide: YAAAQWDFGNTMCQLLTG
modifications: not checked
B52: STRL33 265-282 (peptide)
peptide: SFHYTIMVTEAIAYLRAC
modifications: not checked
B53: STRL33 249-266 (peptide)
peptide: LMKFIRSTHWEYYAMTSF
modifications: not checked
B54: STRL33 149-166 (peptide)
peptide: KVTSLLIWVISLLVSLPQ
modifications: not checked
B55: STRL33 277-294 (peptide)
peptide: AYLRACLNPVLYAFVSLK
modifications: not checked
B56: STRL33 269-286 (peptide)
peptide: TIMVTEAIAYLRACLNPV
modifications: not checked
B57: STRL33 273-290 (peptide)
peptide: TEAIAYLRACLNPVLYAF
modifications: not checked
B58: STRL33 73-90 (peptide)
peptide: LPLADLVFVCTLPFWAYA
modifications: not checked
B59: STRL33 125-142 (peptide)
peptide: VDRFIVVVKATKAYNQQA
modifications: not checked
B60: CCR5 121-138 (peptide)
peptide: LLTIDRYLAVVHAVFALK
modifications: not checked
B61: CCR5 109-126 (peptide)
peptide: FIGFFSGIFFIILLTIDR
modifications: not checked
B62: STRL33 117-134 (peptide)
peptide: MLILTCITVDRFIVVVKA
modifications: not checked
B63: STRL33 221-238 (peptide)
peptide: AGGFQKHRSLKIIFLVMA
modifications: not checked
B64: STRL33 97-114 (peptide)
peptide: FGQVMCKSLLGIYTINFY
modifications: not checked
B65: CCR5 5-22 (peptide)
peptide: VSSPIYDINYYTSEPCQK
modifications: not checked

What follows are binders tested against HIV-1LAI envelope gp120 labeled with radioactive iodine (HIV-1 LAI), P03377 (assay: 125I-gp120, peptide array).
For B1, the counts minus background (counts per 20 min) was 2260 and 2840. In the case of B2, the counts minus background (counts per 20 min) is reported as 2690 and 2360. With B3 the counts minus background (counts per 20 min) was 754 and 1180. For B4, the counts minus background (counts per 20 min) was 1510 and 1280. In the case of B5, the counts minus background (counts per 20 min) is reported as 3970 and 3750. In the case of B6, the counts minus background (counts per 20 min) is reported as 3390 and 3470. For B7, the counts minus background (counts per 20 min) was 306. For B8, the counts minus background (counts per 20 min) was 1020. In the case of B9, the counts minus background (counts per 20 min) is reported as 2330 and 2390. With B10 the counts minus background (counts per 20 min) was 1040 and 1000. B11 was tested, and the counts minus background (counts per 20 min) was 2040 and 3070. For B12, the counts minus background (counts per 20 min) was 77. In the case of B13, the counts minus background (counts per 20 min) is reported as 4170 and 4520. For B14, the counts minus background (counts per 20 min) was 386 and 772. With B15 the counts minus background (counts per 20 min) was 1570 and 1810. Binder B16 has a counts minus background (counts per 20 min) of 62. With B17 the counts minus background (counts per 20 min) was 5910 and 6250. With B18 the counts minus background (counts per 20 min) was 1270 and 1200. B19 was tested, and the counts minus background (counts per 20 min) was -60.5 and -128. For B20, the counts minus background (counts per 20 min) was 810 and 814. With B21 the counts minus background (counts per 20 min) was 83. For B22, the counts minus background (counts per 20 min) was 920 and 958. B23 showed a counts minus background (counts per 20 min) of 228. For B24, the counts minus background (counts per 20 min) was 941. With B25 the counts minus background (counts per 20 min) was 2510 and 3150. In the case of B26, the counts minus background (counts per 20 min) is reported as 1360 and 1600. In the case of B27, the counts minus background (counts per 20 min) is reported as -71.5 and -31.5. With B28 the counts minus background (counts per 20 min) was 42.5 and 75.5. With B29 the counts minus background (counts per 20 min) was 612 and 854. In the case of B30, the counts minus background (counts per 20 min) is reported as 1120 and 1060. In the case of B31, the counts minus background (counts per 20 min) is reported as -41.5 and -20.5. With B32 the counts minus background (counts per 20 min) was 212. For B33, the counts minus background (counts per 20 min) was 1330 and 1140. In the case of B34, the counts minus background (counts per 20 min) is reported as 2170 and 2180. For B35, the counts minus background (counts per 20 min) was 464 and 534. In the case of B36, the counts minus background (counts per 20 min) is reported as 2370 and 2440. For B37, the counts minus background (counts per 20 min) was 208 and 306. B38 was tested, and the counts minus background (counts per 20 min) was 34. For B39, the counts minus background (counts per 20 min) was 489. B40 gave a counts minus background (counts per 20 min) of 173. For B41, the counts minus background (counts per 20 min) was 1070 and 1080. B42 was tested, and the counts minus background (counts per 20 min) was 7260 and 7540. For B43, the counts minus background (counts per 20 min) was 1820 and 1750. In the case of B44, the counts minus background (counts per 20 min) is reported as 70.5 and 51.5. For B45, the counts minus background (counts per 20 min) was 2790 and 2650. B46 was tested, and the counts minus background (counts per 20 min) was 1860 and 2150. For B47, the counts minus background (counts per 20 min) was 808 and 1040. In the case of B48, the counts minus background (counts per 20 min) is reported as -18.5 and -37.5. B49 was tested, and the counts minus background (counts per 20 min) was 962 and 682. In the case of B50, the counts minus background (counts per 20 min) is reported as 234 and 336. For B51, the counts minus background (counts per 20 min) was 494. In the case of B52, the counts minus background (counts per 20 min) is reported as 762 and 1030. In the case of B53, the counts minus background (counts per 20 min) is reported as 934 and 950. In the case of B54, the counts minus background (counts per 20 min) is reported as -39.5 and -118. B55 was tested, and the counts minus background (counts per 20 min) was 1800 and 1850. In the case of B56, the counts minus background (counts per 20 min) is reported as 140 and 272. With B57 the counts minus background (counts per 20 min) was 604 and 480. B58 was tested, and the counts minus background (counts per 20 min) was 558 and 960. In the case of B59, the counts minus background (counts per 20 min) is reported as 104 and 53.5. B60 gave a counts minus background (counts per 20 min) of 31. Binder B61 has a counts minus background (counts per 20 min) of 76. B62 was tested, and the counts minus background (counts per 20 min) was 298 and 228. For B63, the counts minus background (counts per 20 min) was 340 and 260. B64 was tested, and the counts minus background (counts per 20 min) was 1260 and 1350. Binder B65 has a counts minus background (counts per 20 min) of 383.
